Changes are numbered by the printed parent chain. Positions of bridges follow the written chain, without caps; N, C: chain ends. Non-standard residues stand in square brackets, D forms with d. No end group written: not given here. *: point of attachment. Acetyl(2-(4-imidazolyl)) = O=C(Cc1c[nH]cn1)*; Aib = CC(C)(N)C(=O)O
T1: human GIP receptor (human, UniProt P48546 22-466)
T1 sequence (looked up): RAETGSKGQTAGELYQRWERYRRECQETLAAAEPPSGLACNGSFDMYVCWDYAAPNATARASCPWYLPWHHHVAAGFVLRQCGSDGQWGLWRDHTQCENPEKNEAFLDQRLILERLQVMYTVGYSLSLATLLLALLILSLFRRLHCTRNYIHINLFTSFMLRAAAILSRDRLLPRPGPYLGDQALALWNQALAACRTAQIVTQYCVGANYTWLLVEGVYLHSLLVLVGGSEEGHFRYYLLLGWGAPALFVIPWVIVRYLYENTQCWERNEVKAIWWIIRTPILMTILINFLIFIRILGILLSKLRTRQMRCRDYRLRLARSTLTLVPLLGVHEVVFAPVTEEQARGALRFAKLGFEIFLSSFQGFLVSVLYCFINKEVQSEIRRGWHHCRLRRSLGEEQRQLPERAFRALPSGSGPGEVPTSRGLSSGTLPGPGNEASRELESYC

B1: triple agonist of SEQ ID NO: 62 (peptide)
peptide: {Acetyl(2-(4-imidazolyl))}-[Aib]QGTFTSDKSKYLDERAAQDFVQWLLDGGPSSGAPPPS
modifications: not fully specified
B2: triple agonist of SEQ ID NO: 58 (peptide)
peptide: H[Aib]QGTFTSDYSKYLDEKRQKEFVQWLLNTKC
modifications: bridge 16-20; not fully specified
B3: triple agonist of SEQ ID NO: 59 (peptide)
peptide: {Acetyl(2-(4-imidazolyl))}-[Aib]QGTFTSDYSICMDEKHQKDFVNWLLNTK
modifications: bridge 15-19; not fully specified
B4: triple agonist of SEQ ID NO: 50 (peptide)
peptide: H[Aib]QGTFTSDYSKYLDEKRAKEFVQWLLDHHPSSGQPPPSC
modifications: bridge 16-20; not fully specified
B5: triple agonist of SEQ ID NO: 43 (peptide)
peptide: Y[Aib]QGTFTSDYSKYLDEKRAKEFVQWLLDHHCSSGQPPPS
modifications: bridge 16-20; not fully specified
B6: triple agonist of SEQ ID NO: 60 (peptide)
peptide: {Acetyl(2-(4-imidazolyl))}-[Aib]QGTFTSDYSIAMDEKHCKDFVNWLLNTK
modifications: bridge 15-19; not fully specified
B7: triple agonist of SEQ ID NO: 6 (peptide)
peptide: H[Aib]QGTFTSDVSSYLDGQAAKEFVAWLLKGC
modifications: not fully specified
B8: triple agonist of SEQ ID NO: 52 (peptide)
peptide: H[Aib]QGTFTSDYSKYLDEKRQKEFVQWLLDTC
modifications: bridge 16-20; not fully specified
B9: triple agonist of SEQ ID NO: 61 (peptide)
peptide: {Acetyl(2-(4-imidazolyl))}-[Aib]QGTFTSDYSIAMDEIACKDFVNWLLNTK
modifications: bridge 15-19; not fully specified
B10: triple agonist of SEQ ID NO: 54 (peptide)
peptide: H[Aib]EGTFTSDYSIAMDEIHQKDFVDWLLAEC
modifications: bridge 16-20; not fully specified
B11: triple agonist of SEQ ID NO: 49 (peptide)
peptide: {Acetyl(2-(4-imidazolyl))}-[Aib]QGTFTSDYSICMDEIHQKDFVNWLLNTK
modifications: bridge 15-19; not fully specified
B12: triple agonist of SEQ ID NO: 56 (peptide)
peptide: H[Aib]QGTFTSDYSKYLDEKRQKEFVNWLLAQC
modifications: bridge 16-20
B13: triple agonist of SEQ ID NO: 51 (peptide)
peptide: H[Aib]QGTFTSDYSKYLDEKRQKEFVQWLLNTC
modifications: bridge 16-20; not fully specified
B14: triple agonist of SEQ ID NO: 5 (peptide)
peptide: H[Aib]QGTFTSDVSSYLLGQQQKEFIAWLVKGGGPSSGAPPPSC
modifications: not fully specified
B15: triple agonist of SEQ ID NO: 44 (peptide)
peptide: HGQGTFTSDCSKQLDGQAAQEFVAWLLAGGPSSGAPPPS
modifications: ends and bridges not checked
B16: triple agonist of SEQ ID NO: 47 (peptide)
peptide: B15 peptide with Q13Y, A18R
modifications: ends and bridges not checked
B17: triple agonist of SEQ ID NO: 48 (peptide)
peptide: B15 peptide with Q13Y, A18R, E21D, A24N
modifications: ends and bridges not checked
B18: triple agonist of SEQ ID NO: 46 (peptide)
peptide: B15 peptide with Q13Y, G16E, A18H
modifications: ends and bridges not checked
B19: triple agonist of SEQ ID NO: 45 (peptide)
peptide: B15 peptide with Q13Y, L14M, E21D
modifications: ends and bridges not checked

Legend:
Experiment in all cases: cell-based or functional assay
[1] = biological target: human GLP-1 receptor (human, UniProt P43220 24-463)
[2] = biological target: T1, human GIP receptor
[3] = biological target: human GCG receptor (human, UniProt P47871 26-477)
human GCG receptor, sequence (P47871 26-477): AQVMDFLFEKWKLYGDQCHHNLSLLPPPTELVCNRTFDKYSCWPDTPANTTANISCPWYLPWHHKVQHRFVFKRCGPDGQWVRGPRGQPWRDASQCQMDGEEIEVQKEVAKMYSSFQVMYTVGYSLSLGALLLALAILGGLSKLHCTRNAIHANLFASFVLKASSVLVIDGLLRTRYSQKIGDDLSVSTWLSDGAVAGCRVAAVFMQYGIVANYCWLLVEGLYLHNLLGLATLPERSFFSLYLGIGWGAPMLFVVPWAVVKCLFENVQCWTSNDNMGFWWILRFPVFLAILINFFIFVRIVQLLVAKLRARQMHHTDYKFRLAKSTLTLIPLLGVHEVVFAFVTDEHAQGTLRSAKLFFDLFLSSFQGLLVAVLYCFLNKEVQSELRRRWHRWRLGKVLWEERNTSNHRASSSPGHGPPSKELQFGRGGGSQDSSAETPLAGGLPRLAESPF

Binder | In vitro activity (%) compared with native peptide: vs GLP-1 [1] | In vitro activity (%) compared with native peptide: vs GIP [2] | In vitro activity (%) compared with native peptide: vs Glucagon [3]
B1 | 5.2% | < 0.1% | < 0.1%
B2 | 39.1% | 0.2% | 2.6%
B3 | 40.3% | 4% | < 0.1%
B4 | 67.4% | 2.7% | 50.5%
B5 | 12.6% | 3.7% | 88.4%
B6 | 106% | 8.2% | < 0.1%
B7 | 17% | < 0.1% | < 0.1%
B8 | 44.1% | 0.3% | 7.5%
B9 | 59.8% | 2.8% | < 0.1%
B10 | 30.6% | 0.1% | 1.4%
B11 | 29.8% | 3.3% | < 0.1%
B12 | 57.9% | 0.8% | 4.9%
B13 | 14.4% | 0.1% | 2%
B14 | 42.1% | < 0.1% | < 0.1%
B15 | 1.3% | < 0.1% | < 0.1%
B16 | 2.4% | < 0.1% | < 0.1%
B17 | 1.5% | < 0.1% | < 0.1%
B18 | 1.4% | < 0.1% | < 0.1%
B19 | 6.6% | < 0.1% | < 0.1%
